Test results from article PMC2855817 (Biochemistry, 2010).
Where two headings read alike, the source gives them in different places.

Tests used:
O=C1CCCCCO1 = assay: purified protein; format: biochemical, Pseudomonas fluorescens; settings: pH 7.2, BES, 23 °C
[1] = biological target: L29P variant of Pseudomonas fluorescens (SIK WI) aryl esterase (PFE) (Pseudomonas fluorescens SIK WI); assay: crystal structure
[2] = biological target: T1, PFE (Pseudomonas fluorescens esterase; aryl esterase) (Pseudomonas fluorescens, UniProt P22862, L30P); settings: pH 5.5, 23 °C; estimated upper limit
T1 sequence (P22862 2-272 L30P): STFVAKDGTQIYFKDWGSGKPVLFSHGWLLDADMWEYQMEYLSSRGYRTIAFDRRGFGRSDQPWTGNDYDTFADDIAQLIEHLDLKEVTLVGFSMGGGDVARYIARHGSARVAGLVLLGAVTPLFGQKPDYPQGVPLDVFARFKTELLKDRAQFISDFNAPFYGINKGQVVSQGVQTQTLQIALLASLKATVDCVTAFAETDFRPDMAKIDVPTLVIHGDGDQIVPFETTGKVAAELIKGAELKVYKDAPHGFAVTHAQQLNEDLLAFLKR

[3] = biological target: T1, PFE (Pseudomonas fluorescens esterase; aryl esterase); settings: pH 5.5, 23 °C

In the case of “PFE (Pseudomonas fluorescens esterase; aryl esterase) (Pseudomonas fluorescens; L30P)”, the Km (O=C1CCCCCO1) is reported as 39000 ± 1000 µM, the kcat (O=C1CCCCCO1) is reported as 11 ± 1 s⁻¹ and the kcat/Km (O=C1CCCCCO1) is reported as 280 M⁻¹ s⁻¹.

Molecule “L29P variant of Pseudomonas fluorescens (SIK WI) aryl esterase (PFE) (enzyme)” has a stoichiometry N [1] of 6.

In the case of `CC(=O)OO` [peracetic acid], the Km [2] is reported as < 3 µM and the Km [3] is reported as 41 ± 5 µM.
